Measured values reported in patent US11572572B2, “A138T mutation-containing plant EPSPS mutant, and encoding gene and application thereof” (GEVOTO LLC, priority 2017, dated 2023).
Positions count from the first letter of the chain named.

Tested on: transgenic rice seedlings
Experiment: Glyphosate resistance of EPSPS mutants in transgenic rice sprayed with glyphosate (Example 8)
Type: in vivo, rice (Nipponbare)
From the text: The glyphosate resistance of the EPSPS mutants of the above examples in transgenic rice was detected by the following method.
Plasmids of monoclonal resistant strain comprising pADV5-EPSPS of Examples 1-4 (containing the EPSPS mutant genes) were extracted in accordance with a conventional method. They were subjected to double enzymatic digestion with Pacl and BstEII to recover small fragments, and then the small fragments were ligated, using T4 DNA ligase, to a pGVP1 vector subjected to double enzymatic digestion in the same manner, to obtain a pGVP1-EPSPS vector having a structure as shown in FIG. 8.
The pGVP1-EPSPS vector was transformed into EHA105 (Agrobacterium tumefaciens) competent cells, and single clones were picked out for colony PCR detection to obtain positive strains. Then, the positive strains were inoculated into and propagated in 1 mL of a YEP medium containing 50 μg·mL^−1 kanamycin and 50 μg·mL^−1 rifampicin, and stored at −80° C. or used in subsequent experiments.
400 ul of a strain containing the target gene vector stored at −80° C. was added to a culture dish with a solid medium containing YEP+50 μg/mL rifampicin+50 μg/mL kanamycin and cultured in the dark at 28° C. for 24 hours, and then the bacterium was added to an infection medium and adjusted to OD=0.2 as an infection solution.
Disinfection and Pre-culture: seeds of mature rice (Nipponbare) were manually dehulled. Full seeds with no bacterial plaques were selected and disinfected in accordance with the following steps: the seeds were placed in a 50 ml sterile centrifuge tube and disinfected with the added 70% ethanol in water for 30 seconds, ethanol solution was poured out, and the seeds were washed once with sterile water; 10 to 20 ml of 2.6% sodium hypochlorite solution was added to soak and disinfect the seeds for 20 minutes. The sodium hypochlorite solution was poured out, and the seeds were soaked and washed with sterile water for 6 or 7 times, for 3 minutes each time.
Induction and Subculture: the seeds were placed on and blotted with sterile filter paper, and the mature embryos were placed in an induction medium, with 12 embryos per dish. After the operation was completed, the culture dishes were sealed with parafilm and underwent culturing in the dark at 30° C. for 21 to 28 days. Callus tissue was transferred to a fresh medium and continued to be cultured for about 7 to 14 days. Spherical callus tissue with a dimension of 1 to 2 mm was taken as an infection receptor.
The callus tissue was placed into a centrifuge tube or culture cup, infected in the prepared Agrobacterium suspension added thereto for 10 minutes, and shaken several times during the period; the bacterial solution was poured out, the callus tissue was taken out and placed on sterile filter paper for absorbing the bacterial solution from its surface (for about 30 minutes); the callus tissue was placed on sterile filter paper in culture dishes and cultured in the dark at 25° C. for 2 or 3 days.
Recovery Culture: the co-cultured callus tissue was inoculated on a recovery medium and cultured in the dark at 30° C. for 5 to 7 days.
Primary Screening: the callus was transferred to screening medium 1 (51) and cultured in the dark at 30° C. for 14 days.
Secondary Screening: the callus was then transferred to screening medium 2 (S2) and cultured in the dark at 30° C. for 14 days.
Primary Differentiation: the screened resistant callus tissue was transferred to a differentiation medium and cultured for about 21 days at 30° C. under exposure to light for 19 hours.
Secondary Differentiation: new young shoots were selected and moved to a fresh differentiation medium and continued to be cultured for about 21 days.
When the new seedlings grew to about 2 cm, they were moved to a rooting medium and cultured for 3 to 4 weeks at 30° C. under exposure to light (for 16/8 h). […]

[1] = 1X dose glyphosate (1,060 g/ha), day 10 after spraying
[2] = 2X dose glyphosate (2,120 g/ha) on survivors of 1X, after another 10 days
[3] = 5X dose glyphosate (5,300 g/ha) on survivors of 2X, after additional 10 days
[4] = 20X dose glyphosate (21,200 g/ha) on survivors of 5X, after further 10 days

B1: T1: Triticum aestivum EPSPS mutant containing G113(96)A and P118(101)S (SEQ ID NO: 4), gene SEQ ID NO: 21; Control Group 2 of Example 7 (protein)
chain: MATSVAAPAAPAGAEEVVLQPIREISGAVQLPGSKSLSNRILLLSALSEGTTVVDNLLNSEDVHYMLEALEALGLSVEADKVAKRAVVVGCGGRFPVEKDAKEEVKLFLGNAATAMRSLTAAVVAAGGNATYVLDGVPRMRERPIGDLVVGLQQLGADVDCFLGTNCPPVRINGKGGLPGGKVKLSGSISSQYLSSLLMAAPLALEDVEIEIIDKLISVPYVEMTLKLMEHFGVTAEHSDSWDRFYIKGGQKYKSPGNAYVEGDASSASYFLAGAAITGGTVTVEGCGTTSLQGDVKFAEVLEMMGAKVTWTDTSVTVTGPPRQPFGRKHLKAVDVNMNKMPDVAMTLAVVALFADGPTAIRDVASWRVKETERMVAIRTELTKLGATVEEGPDYCIITPPEKLNITAIDTYDDHRMAMAFSLAACAEVPVTIRDPGCTRKTFPNYFDVLSTFVKN
modifications: Triticum aestivum EPSPS mutant with mutations G113(96)A and P118(101)S
- % ++&+++ (percentage of moderately and highly glyphosate resistant plants in total plants observed) [1]: 70.0%
- plant number with resistance + (low glyphosate resistant) [1]: 1
- plant number with resistance ++ (moderately glyphosate resistant) [1]: 7
- plant number with resistance +++ (highly glyphosate resistant) [1]: 14
- % ++&+++ (percentage of moderately and highly glyphosate resistant plants in total plants observed) [2]: 36.7%
- plant number with resistance + (low glyphosate resistant) [2]: 4
- plant number with resistance ++ (moderately glyphosate resistant) [2]: 1
- plant number with resistance +++ (highly glyphosate resistant) [2]: 10
- plant number with resistance − (non-glyphosate resistant, withered or dead) [2]: 15
- % ++&+++ (percentage of moderately and highly glyphosate resistant plants in total plants observed) [3]: 36.7%
- plant number with resistance + (low glyphosate resistant) [3]: 4
- plant number with resistance ++ (moderately glyphosate resistant) [3]: 7
- plant number with resistance +++ (highly glyphosate resistant) [3]: 4
- plant number with resistance − (non-glyphosate resistant, withered or dead) [3]: 15
- % ++&+++ (percentage of moderately and highly glyphosate resistant plants in total plants observed) [4]: 13.3%
- plant number with resistance + (low glyphosate resistant) [4]: 7
- plant number with resistance ++ (moderately glyphosate resistant) [4]: 4
- plant number with resistance +++ (highly glyphosate resistant) [4]: 0
- plant number with resistance − (non-glyphosate resistant, withered or dead) [4]: 19

B2: R5: Oryza sativa EPSPS mutant containing G111(96)A, P116(101)S, and A155(138)T (SEQ ID NO: 9), encoding gene SEQ ID NO: 19 (protein)
chain: MASNAAAAAAKAEEIVLQPIREISGAVQLPGSKSLSNRILLLSALSEGTTVVDNLLNSEDVHYMLEALKALGLSVEADKVAKRAVVVGCGGKFPVEKDAKEEVQLFLGNAATAMRSLTAAVTAAGGNATYVLDGVPRMRERPIGDLVVGLKQLGTDVDCFLGTECPPVRVKGIGGLPGGKVKLSGSISSQYLSALLMAAPLALGDVEIEIIDKLISIPYVEMTLRLMERFGVKAEHSDSWDRFYIKGGQKYKSPGNAYVEGDASSASYFLAGAAITGGTVTVQGCGTTSLQGDVKFAEVLEMMGAKVTWTDTSVTVTGPPREPYGKKHLKAVDVNMNKMPDVAMTLAVVALFADGPTAIRDVASWRVKETERMVAIRTELTKLGASVEEGPDYCIITPPEKLNITAIDTYDDHRMAMAFSLAACADVPVTIRDPGCTRKTFPNYFDVLSTFVRN
modifications: Oryza sativa EPSPS mutant with mutations G111(96)A, P116(101)S, and A155(138)T
- % ++&+++ (percentage of moderately and highly glyphosate resistant plants in total plants observed) [1]: 92.0%
- plant number with resistance + (low glyphosate resistant) [1]: 0
- plant number with resistance ++ (moderately glyphosate resistant) [1]: 0
- plant number with resistance +++ (highly glyphosate resistant) [1]: 23
- % ++&+++ (percentage of moderately and highly glyphosate resistant plants in total plants observed) [2]: 84.0%
- plant number with resistance + (low glyphosate resistant) [2]: 0
- plant number with resistance ++ (moderately glyphosate resistant) [2]: 1
- plant number with resistance +++ (highly glyphosate resistant) [2]: 20
- plant number with resistance − (non-glyphosate resistant, withered or dead) [2]: 4
- % ++&+++ (percentage of moderately and highly glyphosate resistant plants in total plants observed) [3]: 76.0%
- plant number with resistance + (low glyphosate resistant) [3]: 2
- plant number with resistance ++ (moderately glyphosate resistant) [3]: 2
- plant number with resistance +++ (highly glyphosate resistant) [3]: 17
- plant number with resistance − (non-glyphosate resistant, withered or dead) [3]: 4
- plant number with resistance + (low glyphosate resistant) [4]: 1
- plant number with resistance ++ (moderately glyphosate resistant) [4]: 6
- plant number with resistance +++ (highly glyphosate resistant) [4]: 13
- plant number with resistance − (non-glyphosate resistant, withered or dead) [4]: 5
- level of glyphosate resistance of transformed rice seedlings compared with the mutant lacking the A138T mutation (R4 for R5, T1 for T2) (in words) (each of 1×, 2×, 5×, and 20× glyphosate doses): higher levels of glyphosate resistance

B3: R4: Oryza sativa EPSPS mutant containing G111(96)A and P116(101)S (SEQ ID NO: 8), encoding gene SEQ ID NO: 18 (protein)
chain: B2 chain with T155A
modifications: Oryza sativa EPSPS mutant with mutations G111(96)A and P116(101)S
- % ++&+++ (percentage of moderately and highly glyphosate resistant plants in total plants observed) [1]: 88.5%
- plant number with resistance + (low glyphosate resistant) [1]: 0
- plant number with resistance ++ (moderately glyphosate resistant) [1]: 0
- plant number with resistance +++ (highly glyphosate resistant) [1]: 23
- % ++&+++ (percentage of moderately and highly glyphosate resistant plants in total plants observed) [2]: 80.8%
- plant number with resistance + (low glyphosate resistant) [2]: 2
- plant number with resistance ++ (moderately glyphosate resistant) [2]: 1
- plant number with resistance +++ (highly glyphosate resistant) [2]: 20
- plant number with resistance − (non-glyphosate resistant, withered or dead) [2]: 3
- % ++&+++ (percentage of moderately and highly glyphosate resistant plants in total plants observed) [3]: 69.2%
- plant number with resistance + (low glyphosate resistant) [3]: 3
- plant number with resistance ++ (moderately glyphosate resistant) [3]: 1
- plant number with resistance +++ (highly glyphosate resistant) [3]: 17
- plant number with resistance − (non-glyphosate resistant, withered or dead) [3]: 5
- % ++&+++ (percentage of moderately and highly glyphosate resistant plants in total plants observed) [4]: 50.0%
- plant number with resistance + (low glyphosate resistant) [4]: 3
- plant number with resistance ++ (moderately glyphosate resistant) [4]: 10
- plant number with resistance +++ (highly glyphosate resistant) [4]: 3
- plant number with resistance − (non-glyphosate resistant, withered or dead) [4]: 10
